Measurements published in patent publication US20210388081A1 (Memorial Sloan Kettering, published 2021).

Experiments:
[1] = target: T1, FcRL1, overexpressed on 3T3 cells (UniProt Q96LA6 17-429, limits assumed); experiment: phage clone on 3T3-FcRL1 cells
T1 construct: whole, on cells
T1 sequence (looked up): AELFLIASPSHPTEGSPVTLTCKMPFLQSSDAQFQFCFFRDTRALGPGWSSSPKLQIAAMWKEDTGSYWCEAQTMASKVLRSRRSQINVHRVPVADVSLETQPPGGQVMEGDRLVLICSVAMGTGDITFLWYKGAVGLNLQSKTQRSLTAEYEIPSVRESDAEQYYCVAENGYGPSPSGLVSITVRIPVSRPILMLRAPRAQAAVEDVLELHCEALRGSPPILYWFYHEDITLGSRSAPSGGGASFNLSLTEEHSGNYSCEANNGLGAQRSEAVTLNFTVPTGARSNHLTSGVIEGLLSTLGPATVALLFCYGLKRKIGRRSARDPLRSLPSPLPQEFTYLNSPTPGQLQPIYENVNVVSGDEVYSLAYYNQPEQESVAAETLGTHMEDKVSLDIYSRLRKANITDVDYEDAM

[2] = target: T2, FcRL3, overexpressed on 3T3 cells (UniProt Q96P31 18-734, limits assumed); experiment: phage clone on 3T3-FcRL3 cells
T2 construct: whole, on cells
T2 sequence (looked up): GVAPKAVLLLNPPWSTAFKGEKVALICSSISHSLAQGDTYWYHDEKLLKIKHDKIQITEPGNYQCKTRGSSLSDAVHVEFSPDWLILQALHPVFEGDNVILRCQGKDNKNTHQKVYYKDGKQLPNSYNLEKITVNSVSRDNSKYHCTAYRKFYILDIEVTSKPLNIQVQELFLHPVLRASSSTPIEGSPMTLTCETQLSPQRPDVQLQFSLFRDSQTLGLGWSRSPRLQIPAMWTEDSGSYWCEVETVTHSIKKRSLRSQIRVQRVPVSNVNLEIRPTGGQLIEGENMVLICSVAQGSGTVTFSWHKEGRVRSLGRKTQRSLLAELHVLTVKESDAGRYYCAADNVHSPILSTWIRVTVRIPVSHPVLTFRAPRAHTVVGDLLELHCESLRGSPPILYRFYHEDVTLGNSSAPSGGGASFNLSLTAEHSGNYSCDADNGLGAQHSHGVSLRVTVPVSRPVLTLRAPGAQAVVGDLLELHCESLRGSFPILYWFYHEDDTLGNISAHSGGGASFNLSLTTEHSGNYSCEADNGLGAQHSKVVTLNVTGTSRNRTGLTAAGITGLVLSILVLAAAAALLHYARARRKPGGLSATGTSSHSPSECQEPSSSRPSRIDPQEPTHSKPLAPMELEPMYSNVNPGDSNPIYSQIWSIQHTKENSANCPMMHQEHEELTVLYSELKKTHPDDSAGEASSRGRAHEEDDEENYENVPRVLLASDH

[3] = target: T3, FcRL4, overexpressed on 3T3 cells (UniProt Q96PJ5 20-515, limits assumed); experiment: phage clone on 3T3-FcRL4 cells
T3 construct: whole, on cells
T3 sequence (looked up): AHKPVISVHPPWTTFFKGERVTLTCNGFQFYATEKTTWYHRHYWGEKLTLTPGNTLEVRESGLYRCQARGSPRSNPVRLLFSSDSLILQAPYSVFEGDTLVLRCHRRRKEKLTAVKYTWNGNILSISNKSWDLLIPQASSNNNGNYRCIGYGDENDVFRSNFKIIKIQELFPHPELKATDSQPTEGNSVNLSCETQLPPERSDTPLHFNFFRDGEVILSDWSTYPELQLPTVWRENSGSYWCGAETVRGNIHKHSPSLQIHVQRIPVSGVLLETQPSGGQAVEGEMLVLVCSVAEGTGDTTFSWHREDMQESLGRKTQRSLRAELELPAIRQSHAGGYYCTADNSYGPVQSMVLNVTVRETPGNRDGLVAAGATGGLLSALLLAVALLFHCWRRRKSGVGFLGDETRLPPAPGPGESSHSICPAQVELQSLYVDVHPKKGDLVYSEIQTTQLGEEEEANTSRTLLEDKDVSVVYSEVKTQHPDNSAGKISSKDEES

[4] = target: T4, FcRL6, overexpressed on 3T3 cells (UniProt Q6DN72 20-434, limits assumed); experiment: phage clone on 3T3-FcRL6 cells
T4 construct: whole, on cells
T4 sequence (looked up): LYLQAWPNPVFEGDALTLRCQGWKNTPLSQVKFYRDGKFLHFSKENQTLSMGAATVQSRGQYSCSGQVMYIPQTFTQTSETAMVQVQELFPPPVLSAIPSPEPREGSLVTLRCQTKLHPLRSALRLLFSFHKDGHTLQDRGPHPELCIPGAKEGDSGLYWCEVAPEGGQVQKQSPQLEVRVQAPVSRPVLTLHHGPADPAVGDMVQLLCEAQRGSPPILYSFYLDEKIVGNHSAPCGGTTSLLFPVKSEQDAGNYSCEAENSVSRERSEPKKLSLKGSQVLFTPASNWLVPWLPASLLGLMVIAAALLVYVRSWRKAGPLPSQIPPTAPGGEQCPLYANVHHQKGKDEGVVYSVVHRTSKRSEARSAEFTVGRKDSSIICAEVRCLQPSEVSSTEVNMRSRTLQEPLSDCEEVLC

Measured: binding result

B1: ET200-017 (scFv)
scFv: SYVLTQPPSVSVAPGKTARITCGGNNIGSKSVHWYQQKPGQAPVLVVYDDSDRPSGIPERFSGSNSGNTATLSISRVEAGDEADYYCQVWDSSSDHTVFGTGTKVTVLGSRGGGGSGGGGSGGGGSLEMAQVQLQQWGAGLLKPSETLSLTCAVYGGSFSGYYWSWIRQPPGKGLEWIGEINHSGSTNYNPSLKSRVTISVDTSKNQFSLKLSSVTAADTAVYYCARYYPGMDMWGQGTLVTVSSTSGQAGQHHHHHHGAYPYDVPDYAS
notes: screened as phage clone; entry is VL-linker-VH-His tag-HA tag
no binding: all assays above

B2: ET200-019 (scFv)
scFv: NFMLTQPHSVSESPGKTVTISCTRSSGSIASNYVQWYQQRPGSAPTTVIYEDNQRPSGVPDRFSGSIDSSSNSASLTISGLKTEDEADYYCQSYDSSNSWVFGGGTKLTVLGSRGGGGSGGGGSGGGGSLEMAQVQLVQSGAEVKRPGSSVKVSCTASGGTFSSDAISWVRQAPGQGLEWMGGIIPMFGTANYAQKFQGRVTITADESTSTAYMELSSLRSEDTAVYYCAREGYYYPSAYLGSVLNDISSVYDEWGQGTLVTVSSTSGQAGQHHHHHHGAYPYDVPDYAS
notes: as for B1
no binding: all assays above

B3: ET200-011 (scFv)
scFv: QSVVTQPPSVSAAPGQRVTISCSGSSSNISIYDVSWYQQLPGTAPKLLIYGNNKRPSGIADRFSGSTSGTSATLGITGLQTGDEADYYCGTWDDSLSGGVFGGGTKLTVLGSRGGGGSGGGGSGGGGSLEMAQMQLVQSGAEVKKPGSSVKVSCEASGGTLSSYAINWVRQAPGQGLEWMGGIIPMFGTAHYAQKFQGRVTITADESTKTAYMELSSLRSEDTAVYYCARGVHYASFDHWGQGTLVTVSSTSGQAGQHHHHHHGAYPYDVPDYAS
notes: as for B1
no binding: all assays above

B4: ET200-018 (scFv)
scFv: QAVLTQPPSTSGTPGQRVTISCSGSSSNIGRNGVNWYQQLPGAAPKVLIYNDNQRPSGVPDRVSGSQSGSSGTLAIDGLRSEDEADYYCAAWDDSLHGVVFGGGTKLTVLGSRGGGGSGGGGSGGGGSLEMAQVQLVQSGAEVKKPGASVKVSCKVSGYTLNELSMHWVRQAPGKGLEWMGGFDPEDGETIYAQKFQGRVTMTEDTSTDTAYMELSSLRSEDTAVYYCARGGYGDSWGQGTLVTVSSTSGQAGQHHHHHHGAYPYDVPDYAS
notes: as for B1
no binding: all assays above

B5: ET200-015 (scFv)
scFv: QSVVTQPPSVSVAPGKTARITCGGNNIGSKSVHWYQQKPGQAPVLVIYYDSDRPSGIPERFSGSNSGNTATLTISRVEAGDEADYYCQVWDSSSDVVFGGGTKLTVLGSRGGGGSGGGGSGGGGSLEMAEVQLVQSGAEVKKPGASVKVSCKASGYTFTSYGISWVRQAPGQGLEWMGWISAYNGNTNYAQKLQGRVTMTTDTSTSTAYMELRSLRSDDTAVYYCARWGGFGAVDHWGQGTLVTVSSTSGQAGQHHHHHHGAYPYDVPDYAS
notes: as for B1
no binding: all assays above

B6: ET200-013 (scFv)
scFv: QSVVTQPPSVSGAPGQRVTISCTGSTSNIGAGYDVHWYQQLPGTAPKLLIYTNNFRPSGVPDRFSASKSGTSASLAITGLQAEDEADYYCGTWDSSLSAVVFGGGTKLTVLGSRGGGGSGGGGSGGGGSLEMAEVQLVESGTEVKKPGASVKVSCKASGYMFTSYGLNWVRQAPGQGLEWMGWISANNGKTNYAKKFQDRVTMTRDTSTSTGYMELRSLRSDDTAVYYCARHIGGSYFDRWGQGTLVTVSSTSGQAGQHHHHHHGAYPYDVPDYAS
notes: as for B1
no binding: all assays above

B7: ET200-016 (scFv)
scFv: SSELTQDPAVSVALGQTVKITCQGDSLTDYHATWYQQKPGQAPVAVIYATNNRPTGIPDRFSGSSSGNTASLTITGAQAEDEADYYCNSRDSGTDEVLFGGGTKLTVLGSRGGGGSGGGGSGGGGSLEMAEVQLVETGGGLVKPGGSLRLSCAASGFTFSSYSMNWVRQAPGKGLEWVSSISSSSSYIYYADSVKGRFTISRDNAKNSLYLQMNSLRAEDTAVYYCARGQGYDYWGQGTLVTVSSTSGQAGQHHHHHHGAYPYDVPDYAS
notes: as for B1
no binding: all assays above

B8: ET200-014 (scFv)
scFv: SYVLTQPPSVSVAPGKTARITCGGNNIGSKSVHWYQQKPGQAPVLVIYYDSDRPSGIPERFSGSNSGNTATLTISRVEAGDEADYYCQVWDSSSDHYVFGTGTKVTVLGSRGGGGSGGGGSGGGGSLEMAEVQLVETGGGLVQPGGSLRLSCAASGFTFSSYAMSWVRQAPGKGLEWVSAISGSDGSTYYADSVKGRFTISRDNSKNTLYLQMNSLRDEDTAVYYCARSHEANLVGDWWGQGTLVTVSSTSGQAGQHHHHHHGAYPYDVPDYAS
notes: as for B1
no binding: all assays above

B9: ET200-020 (scFv)
scFv: QSVVTQPPSVSAAPGQKVTISCSGSTSNIGNNDVSWYQQLPGTAPKLLIYDNNKRPSGIPDRFSGSKSGTSATLGITGLQTGDEADYYCGTWDSSVSASWVFGRGTKLTVLGSRGGGGSGGGGSGGGGSLEMAQVQLVQSGAEVKKPGASVKVSCKASGYTFTSYGISWVRQAPGQGLEWMGWISAYNGNTNYPQKLQGRVTMTTDPSTSTAYMELRSLRSDDTAVYYCARSMTSFDYWGQGTLVTVSSTSGQAGQHHHHHHGAYPYDVPDYAS
notes: as for B1
no binding: all assays above

B10: ET200-012 (scFv)
scFv: QSVLTQPPSVSAAAGQKVTISCSGSDSNIGNNYVSWYQHLPGTAPKLLIYDVKNRPSGIPDRFSGSKSGSSATLGIAGLQPGDEADYYCGTWDSRLDAYVFGTGTKVTVLGSRGGGGSGGGGSGGGGSLEMAQMQLVQSGAEVKKPGASVKVSCKTSGFPFNIFGITWVRQAPGQGLEWMGWISGYNGNTDYPQKFQGRVTMSTDTSTSTAYMELRNLKSDDTAVYYCARGAYGGMDTWGQGTLVTVSSTSGQAGQHHHHHHGAYPYDVPDYAS
notes: as for B1
no binding: all assays above
